Molecular target: CD38 protein on the surfaces of Raji cells, Daudi cells, Ramos cells and RPMI8226 cells (human, UniProt P28907 1-300)
Assay: cell-based or functional assay

B1: antibody SG003 (antibody, human IgG1, kappa, V domains shown)
VH: QVQLLESGGGLVQPGGSLKLSCVASGFDFSLYWMNWVRQAPGKGLEWIGKINPDSSTINYTPSLKDKFFISRDNAKNTLYLQMTKVRSEDTALYYCARLWIATGGFDYWGQGTTLTVSS
VL: EIVMTQSPASLSASLGQRATISCRASSSVSSSAFSYVHWYQQKSGQPPKLLIYLASNLESGVPARFSGSGSGTDFTLTIHPVESEDVATYYCHHSRELPFTFGSGTKLEIKR
  ADCC activity, EC50 (Daudi target cells, NK92MI-CD16a effector cells, LDH release): 0.72 ng/mL
  ADCC activity, EC50 (RPMI8226 target cells, NK92MI-CD16a effector cells, LDH release): 1.46 ng/mL
  ADCC activity, EC50 (Raji target cells, NK92MI-CD16a effector cells, LDH release): 6.97 ng/mL
